Results as given in PMC8338886 (Clinical Cancer Research, 2021).
Changes are numbered by the printed parent chain.

B1: sPD-1V1 Fc (Fc fusion)
chain: LDSPDRPWNPPTFSPALLVVTEGDNATFTCSFSNTSESFVLNWYRMSPSNQTDKLAAFPEDRGQLGQDCRFRVTQLPNGRDFHMSVVRARRSDSGTYLCSAIVLAPKIQIKESLRVELRVTERRAEVPTAHPSPSPRPAGQFQTLV
B2: sPD-1V2 Fc (Fc fusion)
chain: B1 chain with S92N

Biological target: T1, Human PD-L2 (human, UniProt Q9BQ51)
T1 sequence: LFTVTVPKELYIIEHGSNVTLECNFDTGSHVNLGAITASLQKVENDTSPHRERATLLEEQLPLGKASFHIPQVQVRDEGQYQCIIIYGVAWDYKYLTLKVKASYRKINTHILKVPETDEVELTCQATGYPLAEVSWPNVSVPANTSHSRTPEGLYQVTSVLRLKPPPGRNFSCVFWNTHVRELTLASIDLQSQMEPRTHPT
Experiment: SPR

Binder | Kd [nM]
B1 | 2.95
B2 | 3.4
